# Source: patent US20240116985A1 (published 2024)
# Starred links: 1 amine or outer side, 2 acyl side, 3 side chain; linkers in the order of their positions; H or OH if unused. Positions of bridges follow the written chain, without caps; N, C: chain ends. Non-standard residues stand in square brackets, D forms with d. Primed or numbered codes have the meaning given here. PyrS2″ = (S)-3-amino-1-((pent-4-en-1-yloxy)carbonyl)pyrrolidine-3-carboxylic acid (stapling residue), C=CCCCOC(=O)N1CC[C@@](N[*:1])(C(=O)[*:2])C1; B5(4) = 2,2-bis(4-pentenyl)glycine = 2-amino-2-(pent-4-en-1-yl)hept-6-enoic acid (stitching residue), C=CCCCC(CCCC=C)(N[*:1])C(=O)[*:2]; B5(5) = 2,2-bis(4-pentenyl)glycine, 2-amino-2-(pent-4-en-1-yl)hept-6-enoic acid (stitching residue), C=CCCCC(CCCC=C)(N[*:1])C(=O)[*:2]; B5(6) = 2-amino-2-(pent-4-en-1-yl)hept-6-enoic acid (bis(4-pentenyl)glycine), stitching residue, C=CCCCC(CCCC=C)(N[*:1])C(=O)[*:2]; TfeGA = (S)-2-amino-3-((carboxymethyl)(2,2,2-trifluoroethyl)amino)propanoic acid, O=C([C@H](CN(CC(=O)[*:3])CC(F)(F)F)N[*:1])[*:2]; (EtSSpy)AspE = (S)-2-amino-4-oxo-4-(2-(pyridin-2-yldisulfaneyl)ethoxy)butanoic acid, O=C(C[C@H](N[*:1])C(=O)[*:2])OCCSSc1ccccn1; PyrS2 = (S)-3-amino-1-((pent-4-en-1-yloxy)carbonyl)pyrrolidine-3-carboxylic acid, C=CCCCOC(=O)N1CC[C@@](N[*:1])(C(=O)[*:2])C1; (Ac)GA = (S)-2-amino-3-(N-(carboxymethyl)acetamido)propanoic acid, CC(=O)N(CC(=O)[*:3])C[C@H](N[*:1])C(=O)[*:2]; GA = (S)-2-amino-3-((carboxymethyl)amino)propanoic acid, O=C([C@H](CNCC(=O)[*:3])N[*:1])[*:2]; AspSH = (S)-2-amino-4-mercapto-4-oxobutanoic acid, O=C(C[C@H](N[*:1])C(=O)[*:2])S[*:3]; B5 = 2-amino-2-(pent-4-en-1-yl)hept-6-enoic acid, C=CCCCC(CCCC=C)(N[*:1])C(=O)[*:2]; 2NH2F″ = O=C([C@H](Cc1ccccc1N[*:3])N[*:1])[*:2]; Phe(2-Cl) = N[C@@H](Cc1ccccc1Cl)C(=O)O; Phe(2-Me) = Cc1ccccc1C[C@H](N)C(=O)O; Bta = N[C@@H](Cc1csc2ccccc12)C(=O)O; αAllylPro = C=CC[C@@]1(C(=O)O)CCCN1; tBuAla = CC(C)(C)C[C@H](N)C(=O)O; 3Thi = N[C@@H](Cc1ccsc1)C(=O)O; S8 = C=CCCCCCC[C@](C)(N)C(=O)O; PyrS2(4) = not defined here
# Molecular target: T1, B-cat-Halo (UniProt P35222 1-781)
# T1 sequence (looked up): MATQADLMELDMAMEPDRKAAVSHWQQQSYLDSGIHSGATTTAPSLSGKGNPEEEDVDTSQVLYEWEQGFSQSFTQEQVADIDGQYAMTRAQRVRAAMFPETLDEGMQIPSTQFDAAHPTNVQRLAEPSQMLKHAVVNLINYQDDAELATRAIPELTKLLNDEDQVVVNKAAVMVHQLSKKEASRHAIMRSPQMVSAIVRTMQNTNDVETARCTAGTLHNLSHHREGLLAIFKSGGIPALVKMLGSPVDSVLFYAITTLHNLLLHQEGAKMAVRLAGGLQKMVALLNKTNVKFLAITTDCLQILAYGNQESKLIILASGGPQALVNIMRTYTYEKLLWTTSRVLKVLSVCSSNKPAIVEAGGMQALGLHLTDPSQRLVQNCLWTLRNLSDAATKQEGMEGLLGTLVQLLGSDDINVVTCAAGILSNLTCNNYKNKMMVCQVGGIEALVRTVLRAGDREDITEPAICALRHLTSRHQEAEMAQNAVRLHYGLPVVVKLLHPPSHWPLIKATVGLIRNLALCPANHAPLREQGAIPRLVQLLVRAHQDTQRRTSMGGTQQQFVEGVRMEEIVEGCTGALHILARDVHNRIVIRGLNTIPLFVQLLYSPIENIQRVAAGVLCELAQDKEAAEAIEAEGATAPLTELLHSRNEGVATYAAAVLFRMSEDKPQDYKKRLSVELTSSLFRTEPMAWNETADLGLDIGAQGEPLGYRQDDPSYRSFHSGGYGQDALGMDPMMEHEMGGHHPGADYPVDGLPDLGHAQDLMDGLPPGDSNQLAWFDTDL
# Experiment: cell-based or functional assay
row,NanoBRET Abs IC50 [µM],Binder
1,20.2,"Ac-[αAllylPro]D[tBuAla][B5(5)]D[TfeGA]AAFL[PyrS2″][3Thi][Bta]L-NH2 (staple 1-4, 4-11) [I-1748]"
2,23.7,"Ac-[αAllylPro]D[tBuAla][B5(5)]D[TfeGA]AAFL[PyrS2″][3Thi][Bta]F-NH2 (staple 1-4, 4-11) [I-1750]"

# Molecular target: T2, B-cat-Halo (beta-catenin HaloTag fusion expressed in HEK293 cells) (UniProt P35222 1-781)
# T2 sequence (looked up): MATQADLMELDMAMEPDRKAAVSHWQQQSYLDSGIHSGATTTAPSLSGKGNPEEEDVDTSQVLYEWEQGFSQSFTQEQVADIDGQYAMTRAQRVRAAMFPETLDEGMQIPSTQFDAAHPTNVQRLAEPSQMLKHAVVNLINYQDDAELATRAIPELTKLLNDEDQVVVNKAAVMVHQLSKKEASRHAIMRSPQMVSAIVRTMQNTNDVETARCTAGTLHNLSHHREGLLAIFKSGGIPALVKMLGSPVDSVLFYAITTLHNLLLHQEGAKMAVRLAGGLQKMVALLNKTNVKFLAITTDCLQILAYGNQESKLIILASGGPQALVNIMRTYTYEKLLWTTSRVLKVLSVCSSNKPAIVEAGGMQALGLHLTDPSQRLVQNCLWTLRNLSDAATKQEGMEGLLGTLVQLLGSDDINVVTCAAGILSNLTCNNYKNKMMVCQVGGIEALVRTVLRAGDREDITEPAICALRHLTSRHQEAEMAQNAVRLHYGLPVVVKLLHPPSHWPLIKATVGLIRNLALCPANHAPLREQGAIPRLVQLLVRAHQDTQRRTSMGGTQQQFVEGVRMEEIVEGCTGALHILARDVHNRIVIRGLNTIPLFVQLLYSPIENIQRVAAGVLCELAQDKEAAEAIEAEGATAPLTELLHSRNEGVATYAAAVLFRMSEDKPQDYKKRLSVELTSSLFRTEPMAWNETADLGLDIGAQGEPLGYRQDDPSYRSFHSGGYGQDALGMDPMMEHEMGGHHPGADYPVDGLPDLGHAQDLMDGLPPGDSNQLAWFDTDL
# Experiment: cell-based or functional assay
row,NanoBRET Abs IC50 [µM],Binder
1,29.7,"Ac-[αAllylPro][(EtSSpy)AspE][tBuAla][B5]DDAAFN[PyrS2][Phe(2-Cl)][Bta]Q-NH2 (staple 1-4, 4-11; not fully specified) [I-1724]"
2,10,"Ac-[αAllylPro]D[tBuAla][B5]D[TfeGA]AAFL[PyrS2][Phe(2-Me)][Bta]Q-NH2 (staple 1-4, 4-11) [I-1725]"
3,34.1,"Ac-[αAllylPro]D[tBuAla][B5(4)]DDAA[2NH2F″]N[PyrS2(4)][Phe(2-Cl)][Bta]Q-NH2 (staple 1-4, 4-11; not fully specified; reading uncertain) [I-1727]"
4,> 20,"Ac-[αAllylPro][AspSH][tBuAla][B5]DDAAFN[PyrS2][Phe(2-Cl)][Bta]Q-NH2 (staple 1-4, 4-11; not fully specified) [I-1722]"
5,> 20,"Ac-[αAllylPro]D[tBuAla][B5]D[GA]AAFN[PyrS2][3Thi][Bta]Q-NH2 (staple 1-4, 4-11) [I-1733]"
6,> 20,"Ac-[αAllylPro]D[tBuAla][B5]D[TfeGA]AAFL[PyrS2][Phe(2-Me)][Bta]Q-NH2 (staple 1-4, 4-11; also: -CH=CH- in each staple reduced to -CH2-CH2-) [I-1726]"
7,29.5,"Ac-[αAllylPro]D[tBuAla][B5]D[GA]AAFL[PyrS2][3Thi][Bta]Q-NH2 (staple 1-4, 4-11) [I-1731]"
8,> 20,"Ac-[αAllylPro]D[tBuAla][B5(4)]D[GA]AAFN[PyrS2(4)][3Thi][Bta]Q-NH2 (staple 1-4, 4-11; not fully specified; reading uncertain) [I-1732]"
9,> 20,"Ac-[αAllylPro]D[tBuAla][B5(5)]D[TfeGA]AAFL[PyrS2″][3Thi][Bta]L-NH2 (staple 1-4, 4-11) [I-1747]"
10,23,"Ac-[αAllylPro]D[tBuAla][B5]D[(Ac)GA]AAFL[PyrS2][3Thi][Bta]Q-NH2 (staple 1-4, 4-11) [I-1729]"

# Molecular target: T3, full-length beta-Catenin (Uniprot ID P35222) (Homo sapiens (Human), UniProt P35222 1-781)
# T3 construct: also called bCat; B-Catenin
# T3 sequence: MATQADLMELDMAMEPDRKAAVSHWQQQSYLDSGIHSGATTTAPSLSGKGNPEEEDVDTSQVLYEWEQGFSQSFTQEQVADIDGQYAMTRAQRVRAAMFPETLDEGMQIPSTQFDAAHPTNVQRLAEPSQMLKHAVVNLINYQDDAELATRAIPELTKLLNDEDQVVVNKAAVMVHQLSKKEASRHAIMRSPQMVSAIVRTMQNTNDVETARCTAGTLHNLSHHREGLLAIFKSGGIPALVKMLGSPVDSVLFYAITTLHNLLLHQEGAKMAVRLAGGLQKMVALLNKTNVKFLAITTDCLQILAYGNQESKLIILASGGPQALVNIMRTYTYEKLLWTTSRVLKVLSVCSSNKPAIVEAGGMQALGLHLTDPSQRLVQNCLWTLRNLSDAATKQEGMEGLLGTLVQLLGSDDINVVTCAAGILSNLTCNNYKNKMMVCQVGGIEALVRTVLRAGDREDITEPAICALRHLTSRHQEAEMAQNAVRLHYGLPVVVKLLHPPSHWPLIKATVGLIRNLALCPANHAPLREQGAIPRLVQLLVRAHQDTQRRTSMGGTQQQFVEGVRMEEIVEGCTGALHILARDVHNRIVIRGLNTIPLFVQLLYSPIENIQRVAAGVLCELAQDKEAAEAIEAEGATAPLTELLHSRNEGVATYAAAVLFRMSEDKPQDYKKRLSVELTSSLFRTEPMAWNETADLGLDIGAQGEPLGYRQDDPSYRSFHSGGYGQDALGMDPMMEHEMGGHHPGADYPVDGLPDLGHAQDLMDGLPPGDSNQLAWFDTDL
# Experiment: fluorescence polarization competition; 10 nM full-length beta-catenin + 10 nM 5FAM-TCF4(10-53) probe
# Method: The plate was incubated protected from light for 60 minutes at 20° C. prior to read. Reads were performed on a CLARIOstar plate reader (BMG Labtech) in duplicate, and data were fitted to a 1:1 binding model with hill slope using an in-house script. All provided concentrations are final concentrations.
row,EC50 [µM],Binder
1,0.025,"Ac-[αAllylPro]DL[B5(6)]DEAAFQ[S8]F[Bta]H-NH2 (staple 1-4, 4-11, Stapled peptide composition; also called Ac-PL3-Asp-Leu-B5-Asp-Glu-Ala-Ala-Phe-Gln-S8-Phe-BztA-His-NH2) [I-506]"
2,0.073,"XDAXDEAAFQXFXT (not fully specified; N-terminal acetyl (Ac); PL3 at X1, B5 at X4 and S8 at X11 stapled (PL3-B5 and B5-S8, olefin metathesis); BztA at X13; C-terminal amide (NH2), Stapled peptide composition; also called Ac-PL3-Asp-Ala-B5-Asp-Glu-Ala-Ala-Phe-Gln-S8-Phe-BztA-Thr-NH2) [I-508]"
3,0.063,"XDIXDEAAFQXFXQ (not fully specified; N-terminal acetyl (Ac); PL3 at X1, B5 at X4 and S8 at X11 stapled (PL3-B5 and B5-S8, olefin metathesis); 2OMeF at X12; BztA at X13; C-terminal amide (NH2), Stapled peptide composition; also called Ac-PL3-Asp-Ile-B5-Asp-Glu-Ala-Ala-Phe-Gln-S8-2OMeF-BztA-Gln-NH2) [I-528]"
